Source: patent US20120178668A1

Key:
Assay in all cases: cell-based or functional assay
[1] = target: Natriuretic Peptide Receptor-A (NPR-A) of MDCK cells (canine (endogenous in MDCK cells))
rat GC-A (rat) = rat GC-A (rat) (UniProt P18910)
NPR-C (rat) = target: T1, NPR-C (rat) (UniProt P41740)
T1 sequence: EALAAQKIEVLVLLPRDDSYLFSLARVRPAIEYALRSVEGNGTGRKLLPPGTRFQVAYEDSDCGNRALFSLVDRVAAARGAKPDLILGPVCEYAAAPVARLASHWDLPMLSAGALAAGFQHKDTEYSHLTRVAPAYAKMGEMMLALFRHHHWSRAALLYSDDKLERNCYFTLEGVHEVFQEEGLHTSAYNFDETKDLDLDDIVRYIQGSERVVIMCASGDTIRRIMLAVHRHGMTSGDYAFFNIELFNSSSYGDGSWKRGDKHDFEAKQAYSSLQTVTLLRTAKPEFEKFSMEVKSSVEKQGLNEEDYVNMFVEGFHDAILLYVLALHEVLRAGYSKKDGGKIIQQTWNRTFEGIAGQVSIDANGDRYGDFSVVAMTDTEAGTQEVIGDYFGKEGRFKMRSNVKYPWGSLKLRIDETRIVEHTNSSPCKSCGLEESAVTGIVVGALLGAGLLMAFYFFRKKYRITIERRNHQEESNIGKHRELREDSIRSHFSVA

NPR-A of HeLa cells = NPR-A of HeLa cells (UniProt P16066)
[2] = target: T2, Natriuretic Peptide Receptor-A (NPR-A) of MDCK cells (canine (endogenous in MDCK cells)), A0A8I3
T2 chain: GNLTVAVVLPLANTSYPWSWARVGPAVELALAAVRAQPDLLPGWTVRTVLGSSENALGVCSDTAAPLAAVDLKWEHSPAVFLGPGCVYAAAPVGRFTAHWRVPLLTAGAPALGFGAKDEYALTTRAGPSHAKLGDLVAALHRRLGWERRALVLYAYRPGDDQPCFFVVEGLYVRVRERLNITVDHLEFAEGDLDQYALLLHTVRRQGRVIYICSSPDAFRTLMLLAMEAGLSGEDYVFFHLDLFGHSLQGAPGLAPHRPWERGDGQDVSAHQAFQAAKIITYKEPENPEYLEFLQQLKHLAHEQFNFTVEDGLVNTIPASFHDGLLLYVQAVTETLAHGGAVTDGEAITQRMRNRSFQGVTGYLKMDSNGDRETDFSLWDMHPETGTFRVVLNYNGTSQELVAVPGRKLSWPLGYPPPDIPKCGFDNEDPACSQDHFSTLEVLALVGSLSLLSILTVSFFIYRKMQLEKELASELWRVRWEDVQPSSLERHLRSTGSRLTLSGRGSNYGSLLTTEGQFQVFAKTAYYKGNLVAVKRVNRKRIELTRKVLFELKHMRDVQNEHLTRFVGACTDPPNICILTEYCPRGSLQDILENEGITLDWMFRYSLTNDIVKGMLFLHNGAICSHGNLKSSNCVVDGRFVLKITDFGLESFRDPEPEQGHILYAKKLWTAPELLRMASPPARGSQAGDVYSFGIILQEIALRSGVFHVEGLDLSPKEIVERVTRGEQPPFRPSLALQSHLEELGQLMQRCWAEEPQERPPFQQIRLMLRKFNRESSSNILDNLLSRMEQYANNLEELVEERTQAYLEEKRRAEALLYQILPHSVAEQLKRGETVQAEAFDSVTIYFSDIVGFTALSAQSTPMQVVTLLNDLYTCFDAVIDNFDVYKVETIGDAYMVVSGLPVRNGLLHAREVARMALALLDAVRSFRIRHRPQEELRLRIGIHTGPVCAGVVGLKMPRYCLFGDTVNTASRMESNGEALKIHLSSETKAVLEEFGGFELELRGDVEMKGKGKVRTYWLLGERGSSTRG

NPR-C (rat), P41740 = target: T3, NPR-C (rat), P41740
T3 chain: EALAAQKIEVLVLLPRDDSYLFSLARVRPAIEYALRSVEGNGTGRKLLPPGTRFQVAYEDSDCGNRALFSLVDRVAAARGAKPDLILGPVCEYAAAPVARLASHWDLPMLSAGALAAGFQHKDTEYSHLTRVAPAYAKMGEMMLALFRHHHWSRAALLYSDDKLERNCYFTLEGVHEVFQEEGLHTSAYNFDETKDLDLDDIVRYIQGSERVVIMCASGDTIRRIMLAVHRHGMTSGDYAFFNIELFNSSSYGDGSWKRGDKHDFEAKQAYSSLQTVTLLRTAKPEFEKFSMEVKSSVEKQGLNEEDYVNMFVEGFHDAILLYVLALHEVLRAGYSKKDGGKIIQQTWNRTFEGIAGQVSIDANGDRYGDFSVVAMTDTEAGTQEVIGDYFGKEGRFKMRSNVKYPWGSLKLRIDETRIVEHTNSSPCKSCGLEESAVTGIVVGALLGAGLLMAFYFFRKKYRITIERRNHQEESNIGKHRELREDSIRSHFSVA

[3] = target: T4, NPR-A of HeLa cells, P16066
T4 chain: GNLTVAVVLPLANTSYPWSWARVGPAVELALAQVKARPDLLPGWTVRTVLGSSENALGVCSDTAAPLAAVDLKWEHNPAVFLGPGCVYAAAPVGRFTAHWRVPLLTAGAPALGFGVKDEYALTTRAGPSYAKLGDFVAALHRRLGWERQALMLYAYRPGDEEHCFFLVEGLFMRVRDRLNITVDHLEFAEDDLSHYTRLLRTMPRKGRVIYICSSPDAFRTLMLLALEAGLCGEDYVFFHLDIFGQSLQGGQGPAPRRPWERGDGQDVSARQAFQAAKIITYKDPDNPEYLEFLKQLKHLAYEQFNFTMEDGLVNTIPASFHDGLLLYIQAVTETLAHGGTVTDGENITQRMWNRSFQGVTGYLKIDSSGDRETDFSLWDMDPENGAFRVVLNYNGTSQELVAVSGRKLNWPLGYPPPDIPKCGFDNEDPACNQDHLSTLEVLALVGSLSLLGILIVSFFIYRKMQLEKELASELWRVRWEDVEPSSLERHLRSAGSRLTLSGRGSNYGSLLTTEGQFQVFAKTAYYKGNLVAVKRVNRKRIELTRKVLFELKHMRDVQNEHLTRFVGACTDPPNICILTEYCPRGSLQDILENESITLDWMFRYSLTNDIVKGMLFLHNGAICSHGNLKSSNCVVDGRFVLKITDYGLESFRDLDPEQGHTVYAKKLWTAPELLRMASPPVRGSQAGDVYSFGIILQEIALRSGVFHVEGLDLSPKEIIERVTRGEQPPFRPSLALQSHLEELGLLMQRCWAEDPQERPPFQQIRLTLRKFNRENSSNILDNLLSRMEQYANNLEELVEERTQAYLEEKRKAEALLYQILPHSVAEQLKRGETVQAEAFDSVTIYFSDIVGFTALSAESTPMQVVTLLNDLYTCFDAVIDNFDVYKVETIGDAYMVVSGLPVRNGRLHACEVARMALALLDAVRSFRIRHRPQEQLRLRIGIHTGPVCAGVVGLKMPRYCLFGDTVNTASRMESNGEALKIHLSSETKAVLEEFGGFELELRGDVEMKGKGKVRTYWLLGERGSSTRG

rat GC-A (rat), P18910 = target: T5, rat GC-A (rat), P18910
T5 chain: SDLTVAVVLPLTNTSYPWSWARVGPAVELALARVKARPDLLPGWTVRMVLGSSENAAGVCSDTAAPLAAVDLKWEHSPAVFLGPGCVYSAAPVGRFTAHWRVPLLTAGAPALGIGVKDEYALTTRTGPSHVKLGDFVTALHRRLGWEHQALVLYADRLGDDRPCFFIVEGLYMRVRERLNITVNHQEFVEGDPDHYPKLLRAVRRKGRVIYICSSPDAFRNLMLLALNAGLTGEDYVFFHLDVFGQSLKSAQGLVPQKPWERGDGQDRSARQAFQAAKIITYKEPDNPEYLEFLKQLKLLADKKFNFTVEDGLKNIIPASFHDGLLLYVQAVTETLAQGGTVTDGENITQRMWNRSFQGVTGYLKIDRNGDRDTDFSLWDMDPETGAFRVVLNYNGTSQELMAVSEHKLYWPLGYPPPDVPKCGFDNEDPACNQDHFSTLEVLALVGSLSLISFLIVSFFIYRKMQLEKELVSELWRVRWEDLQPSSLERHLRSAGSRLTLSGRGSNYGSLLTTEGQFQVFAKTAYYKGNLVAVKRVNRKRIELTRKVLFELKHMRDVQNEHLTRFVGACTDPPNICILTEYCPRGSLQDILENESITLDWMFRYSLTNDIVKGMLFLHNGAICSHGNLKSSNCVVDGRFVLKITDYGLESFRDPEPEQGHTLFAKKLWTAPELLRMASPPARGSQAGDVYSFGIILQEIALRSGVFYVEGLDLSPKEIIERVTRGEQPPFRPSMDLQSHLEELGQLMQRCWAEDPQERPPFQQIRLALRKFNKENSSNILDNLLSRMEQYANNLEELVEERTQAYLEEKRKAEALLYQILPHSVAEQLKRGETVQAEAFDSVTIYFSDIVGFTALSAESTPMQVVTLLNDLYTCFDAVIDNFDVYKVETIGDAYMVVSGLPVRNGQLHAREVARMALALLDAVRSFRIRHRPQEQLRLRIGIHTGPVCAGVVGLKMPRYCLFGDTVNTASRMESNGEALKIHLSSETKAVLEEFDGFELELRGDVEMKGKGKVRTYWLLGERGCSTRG

| Molecule | -Log10 EC50 (pEC50) of cGMP accumulation in MDCK cells [1] | EC50 of cGMP accumulation in MDCK cells [1] [µM] | mean relaxation of denuded aortic rings, % of KCl response (% of KCl response) (rat GC-A (rat)) | relaxation of KCl pre-contracted endothelium-intact rat aortic rings (NPR-C (rat), P41740) [%] | also measured |
| --- | --- | --- | --- | --- | --- |
| R18-TNPc (peptide) | 6.78 | 0.7 | 0.5 |  |  |
| R32-TNPc (peptide) | 7.68 | 0.0991 | 66.4 |  |  |
| S6, A7-TNPc (peptide) | 6.9 | 0.169 | 43.1 |  |  |
| S6, K7-TNPc (peptide) | 7.57 | 0.0524 | 43.8 |  |  |
| hANP (peptide) | 8.79 | 0.0164 | 66.5 |  | relaxation of KCl pre-contracted endothelium-intact rat aortic rings (NPR-C (rat)): 100%; relaxation of KCl pre-contracted endothelium-denuded rat aortic rings (rat GC-A (rat)): 100% |
| hBNP (peptide) | 9.16 | 0.000906 |  |  | -Log10EC50 (pEC50) of cGMP accumulation in HeLa cells (NPR-A of HeLa cells): 6.92; EC50 of cGMP accumulation in HeLa cells (NPR-A of HeLa cells): 0.147 µM |
| rANP (from UniProt P01161 123-150) (peptide) | 8.76 | 0.00847 |  |  |  |
| SDSKIGNGCFGFPLDRIGSVSGLGCNRIMQNPPKKFSGE (modifications not checked) [TNPc] |  |  |  | 100 | -Log10 EC50 (pEC50) of cGMP accumulation in MDCK cells [2]: 6.93; EC50 of cGMP accumulation in MDCK cells [2]: 0.184 µM; EC50 of cGMP accumulation in HeLa cells [3]: 124000 µM; mean relaxation of denuded aortic rings, % of KCl response (% of KCl response) (rat GC-A (rat), P18910): 55; relaxation of KCl pre-contracted endothelium-denuded rat aortic rings (rat GC-A (rat), P18910): 100% |
| SDSKIGDGCFGLPLDHIGSVSGLGCNRPVQNRPKK (modifications not checked) [TNPa] |  |  |  | 20 |  |
| SDPKIGDGCFGLPLDHIGSVSGLGCNRPVQNRPKK (modifications not checked) [TNPb] |  |  |  | 20 |  |
